These results are taken from paper PMC5247705.

Assay [1] has as its target human Toll-like receptor 5 on HEK293^TLR5 reporter cells (human) (UniProt O60602).
Assay [2] shares this target. The source holds these as a separate data set.
In assay [3] the target is rTLR5^N14-Avitag, biotinylated (zebrafish | hagfish) (UniProt B3DIN1). Put plainly: ELISA; competitive binding assay: 96-well plates coated with 0.2 μg/ml bsflagellin in PBS; serially diluted soluble flagellin and 0.02 μg/ml biotinylated rTLR5^N14-Avitag incubated together for 48 hours at 4 °C in 1% BSA in PBS-T; detected with HRP-streptavidin.
The target in assay [4] is human Toll-like receptor 5 on HEK293^TLR5 reporter cells (human) (UniProt O60602). The source holds these as a separate data set.
In assay [5] the target is rTLR5^N14, tag-free (zebrafish TLR5 LRRNT-LRR14 fused to the C-terminal fragment of hagfish variable lymphocyte receptor) (zebrafish | hagfish) (UniProt B3DIN1). In words: SEC; purified flagellin and rTLR5^N14 incubated at 18 °C for 30 minutes; Superdex 200 10/300 column; elution monitored at 222 nm.
For assay [6] the target is unchanged. Put plainly: native gel or EMSA; purified flagellin and rTLR5^N14 incubated at 18 °C for 30 minutes; native PAGE on 6% polyacrylamide gels at room temperature for 1.5 hours at 100 V.
The target is the same in assay [7]. Put plainly: crystal structure; bsflagellin^cent-rTLR5^N14 complex, 2.1 Å; crystallised in 17.5% (w/v) PEG 300, 50 mM sodium acetate, pH 4.4 at 18 °C.

Chain of UniProt O60602 (O60602 21-858): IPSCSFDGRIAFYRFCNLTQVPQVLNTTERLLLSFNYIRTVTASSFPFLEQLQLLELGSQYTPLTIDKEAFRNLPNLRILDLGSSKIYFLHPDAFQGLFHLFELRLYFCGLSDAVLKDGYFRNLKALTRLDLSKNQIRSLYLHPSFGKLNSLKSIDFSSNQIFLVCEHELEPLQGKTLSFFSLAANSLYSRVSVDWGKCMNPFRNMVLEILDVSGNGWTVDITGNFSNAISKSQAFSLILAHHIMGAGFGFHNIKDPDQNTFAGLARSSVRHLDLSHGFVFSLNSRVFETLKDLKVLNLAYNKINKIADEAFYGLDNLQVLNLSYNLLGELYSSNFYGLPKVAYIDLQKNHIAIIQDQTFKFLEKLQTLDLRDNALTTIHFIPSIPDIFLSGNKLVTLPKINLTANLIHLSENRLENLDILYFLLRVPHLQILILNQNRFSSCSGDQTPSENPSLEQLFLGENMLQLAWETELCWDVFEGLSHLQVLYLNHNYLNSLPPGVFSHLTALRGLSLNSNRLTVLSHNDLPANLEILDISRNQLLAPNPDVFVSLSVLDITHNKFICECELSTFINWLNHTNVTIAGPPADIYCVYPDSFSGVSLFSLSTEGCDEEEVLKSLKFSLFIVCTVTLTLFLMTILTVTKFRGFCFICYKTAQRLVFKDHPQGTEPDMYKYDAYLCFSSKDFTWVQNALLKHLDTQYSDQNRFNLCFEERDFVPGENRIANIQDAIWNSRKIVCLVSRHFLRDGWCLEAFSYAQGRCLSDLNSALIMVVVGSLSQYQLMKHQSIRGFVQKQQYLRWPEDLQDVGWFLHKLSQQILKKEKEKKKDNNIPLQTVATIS

In the case of “bsflagellin E114A mutant (from UniProt P02968 1-304) (natural protein)”, the TLR5 activity in the HEK293^TLR5 reporter cell assay, fold reduction against bsflagellin^WT in assay [1] was found to be 6 fold.
“Salmonella enterica subspecies enterica serovar Dublin flagellin, full length (from UniProt Q06971 1-505) (natural protein)” had an EC50 (pM) for TLR5 signaling; NF-κB-inducible SEAP reporter in HEK293^TLR5 cells in assay [2] of 0.57 pM. The IC50 in assay [3] turned out to be 0.289 nM.
Take “Shigella flexneri flagellin, full length (from UniProt Q08860 1-550) (natural protein)”: in assay [2], the EC50 (pM) for TLR5 signaling; NF-κB-inducible SEAP reporter in HEK293^TLR5 cells is 1.57 pM. Moreover, in assay [3], the IC50 is 0.414 nM.
On to “bsflagellin R89A mutant (from UniProt P02968 1-304) (natural protein)”, for which the HEK293^TLR5 reporter cell activity, fold change of EC50 against bsflagellin^WT in assay [4] is 49 fold. Moreover, the fold lower activity in the competitive rTLR5^N14-binding assay in assay [3] was found to be 10 fold.
Substance “Escherichia coli flagellin, full length (from UniProt P04949 1-498) (natural protein)” registered an EC50 (pM) for TLR5 signaling; NF-κB-inducible SEAP reporter in HEK293^TLR5 cells in assay [2] of 1.13 pM. Besides, the IC50 in assay [3] is 0.517 nM.
Consider “bsflagellin L93A mutant (from UniProt P02968 1-304) (natural protein)”, for which the TLR5 activity in the HEK293^TLR5 reporter cell assay, fold reduction against bsflagellin^WT in assay [1] was 2 fold.
Substance “Pseudomonas aeruginosa flagellin, full length (from UniProt P21184 1-394) (natural protein)” gave an EC50 (pM) for TLR5 signaling; NF-κB-inducible SEAP reporter in HEK293^TLR5 cells in assay [2] of 1.68 pM. Moreover, in assay [3], the IC50 was 0.673 nM.
For the substance “Bacillus subtilis flagellin (Hag), full-length wild type (from UniProt P02968 1-304) (natural protein)”, in assay [2], the EC50 (pM) for TLR5 signaling; NF-κB-inducible SEAP reporter in HEK293^TLR5 cells is 1.18 pM. The stoichiometry N in assay [5] and in assay [6] was 1 in each case. For the same substance, in assay [3], the IC50 is 0.204 nM.
“central region of bsflagellin (bsflagellin^cent; D1 residues 54-230) (from UniProt P02968 54-230) (domain or fragment)” displayed a stoichiometry N in assay [7] of 1.
